The EC50 is the concentration at which the effect is half-maximal. Lower therefore signals an effect from little substance.

The text below walks through data of patent publication US20220177583A1 (University of California, published 2022).

Numbering of substitutions follows the chain as printed. Where only a bound is given, the exact number is not on record here.

Assay [1] deals with T1, human CLDN6, endogenously expressed on cancer cell lines (human, UniProt P56747 1-220).
T1 construct: also called Endogenous CLDN6+; CLDN6 on ARK2, OVCA429, UMUC4 cells
T1 sequence: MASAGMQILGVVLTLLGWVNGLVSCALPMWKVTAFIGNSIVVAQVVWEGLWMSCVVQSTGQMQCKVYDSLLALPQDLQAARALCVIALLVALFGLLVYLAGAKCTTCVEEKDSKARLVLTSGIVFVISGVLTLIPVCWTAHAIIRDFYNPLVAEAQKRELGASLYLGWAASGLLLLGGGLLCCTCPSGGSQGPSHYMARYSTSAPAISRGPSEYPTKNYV
The experiment in a line: FACS dose curve, labelled mAb, ARK2 cells.

The target of assay [2] is T1, human CLDN6, endogenously expressed on …. Kind of assay: FACS dose curve, labelled mAb, OVCA429 cells.
In assay [3] the target is T2, CLDN9-GFP expressed on engineered HEK293T cells (human, UniProt O95484 1-217).
T2 construct: whole, on cells; also called HEK293T CLDN9-mGFP; Artificial CLDN9+; not shown: GFP tag
T2 sequence (looked up): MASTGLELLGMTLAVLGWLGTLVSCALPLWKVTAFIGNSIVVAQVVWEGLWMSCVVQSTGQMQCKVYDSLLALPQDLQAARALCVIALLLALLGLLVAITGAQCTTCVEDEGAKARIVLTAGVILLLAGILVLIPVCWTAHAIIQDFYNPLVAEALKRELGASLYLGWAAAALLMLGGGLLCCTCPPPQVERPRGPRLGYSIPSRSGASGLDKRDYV
The experiment in a line: FACS dose curve, labelled mAb, HEK293T CLDN9-mGFP cells.

The target of assay [4] is T3, mouse CLDN6 fused to GFP, expressed on engineered HEK293T cells (mouse, UniProt Q9Z262 1-219).
T3 construct: whole, on cells; also called HEK293T-CLDN6-mGFP Artificial CLDN6+ (mouse); murine CLDN6; not shown: GFP tag
T3 sequence (looked up): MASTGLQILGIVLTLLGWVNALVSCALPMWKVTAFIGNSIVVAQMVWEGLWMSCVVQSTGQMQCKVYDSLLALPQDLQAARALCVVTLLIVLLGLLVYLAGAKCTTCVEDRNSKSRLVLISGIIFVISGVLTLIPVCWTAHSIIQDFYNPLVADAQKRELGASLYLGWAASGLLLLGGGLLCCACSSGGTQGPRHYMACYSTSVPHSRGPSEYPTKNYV
The experiment in a line: FACS dose curve, labelled mAb, HEK293T-CLDN6-mGFP (mouse) cells.

The target in assay [5] is T4, CLDN4-GFP expressed on engineered HEK293T cells (human, UniProt O14493 1-209).
T4 construct: whole, on cells; also called HEK293T CLDN4-mGFP; Artificial CLDN4+; not shown: GFP tag
T4 sequence (looked up): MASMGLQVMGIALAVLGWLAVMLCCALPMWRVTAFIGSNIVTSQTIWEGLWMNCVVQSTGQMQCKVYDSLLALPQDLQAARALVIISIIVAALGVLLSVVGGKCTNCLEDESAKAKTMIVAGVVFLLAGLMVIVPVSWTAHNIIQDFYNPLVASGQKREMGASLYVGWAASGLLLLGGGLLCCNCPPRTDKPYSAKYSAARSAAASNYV
The experiment in a line: FACS dose curve, labelled mAb, HEK293T CLDN4-mGFP cells.

Assay [6] concerns the target T1, human CLDN6, endogenously expressed on …. Kind of assay: flow cytometry on UMUC4 cells (Positive Cell Line), anti-human IgG Fc secondary antibody.
Assay [7] has as its target T3, mouse CLDN6 fused to GFP, expressed on …. The experiment in a line: FACS, 293T clone with mouse CLDN6. In general terms: A flow cytometer gives signals particle by particle.
In assay [8] the target is T1, human CLDN6, endogenously expressed on …. Kind of assay: FACS, ARK2 cells, 1.5 ug Ab.
For assay [9] the target is unchanged. Kind of assay: FACS, ARK2 cells, 0.3 ug Ab.

B1: AB13 (antibody, V domains shown)
VH: QVQLQQSGAELVRPGTSVKVSCKASGYAFSNYLIEWVKQRPGQGLEWIGVINPGSGGTNYNEKFKGKATMTADKSSSTAYMHLSNLTSEDSVVYFCARSYFGRSYPYTMDYWGQGTSVTVSS
VL: EIVLTQSPTTMAASPGEKITITCSASSSISSNYLHWYQQKPGFSPKLLIYRTSNLASGVPARFSGSGSGTSYSLTIGTMEAEDVATYYCQQGSSIPLTFGAGTKLELK
notes: Full-length IgG (ExpiCHO)
With B1, the EC50 in assay [1] amounted to 1150 nM; in assay [2] it was 2290 nM.

B2: AB1 (antibody, V domains shown)
VH: QVQLQQSAAELARPGASVKMSCKASGYTFTTYTMHWVKQRPGQGLEWIGFINPSSGYTDYNQKFKDRTTLTADKSSSTVYMQLSSLTSEDSAVYYCANGDYYVAYWGQGTLVTVSA
VL: QIVLTQSPAIMSASLGERVTMTCTASSSVSSTYFHWYQQKPGSSPKLWIYSTSNLASGVPRRFSGSASGTSYSLTISSMEAEDAATYYCHQYHRSPLTFGAGTKLELK
notes: Full-length IgG (ExpiCHO)
Turning to B2, the EC50 is 105 nM in [1], 2760 nM in [3], 84 nM in [2] and 72 nM in [4].

B3: AB18 (antibody, V domains shown)
VH: QVQLKQSGPELEKPGASVKISCKASGYSFTGYNMNWVKQSNGKSLEWIGNIDPYYGGSTYNQKFTGKATLTVDKSSSTAYMQLKSLTSEDSAVYYCARERSGYVFSAMDYWGQGTSVTVSS
VL: NIMMTQSPSSLAVSAGEKVTMSCKSSQSVLFSSNQKNYLAWYQQKPGQSPRLLIYWASTRESGVPDRFTGSGSGTDFTLTISNVQAEDLAVYYCHQYLSSRTFGAGTKLELK
notes: Full-length IgG (ExpiCHO)
Take B3: the EC50 in assay [1] amounted to 1350 nM; in assay [2], 2440 nM.

B4: AB2 (antibody, V domains shown)
VH: EVKLEESGGGLVQPGGSMKLSCVASGFTFSDYWMNWVRQSPEKGLEWVAQIRLKSDNYATHYAESVKGRFTISRDDSKRSVYLQMNNLRAEDTGTYYCNDGPPSGCWGQGTTLIVSS
VL: DIQMTQSPASLSASVGETVTITCRISENIYSYLAWYQQKQGKSPQLLVYNAKILVEGVPSRFSGSGSGTQFSLKINSLQPEDFGNYYCQHHYTVPWTFGGGTKLEIK
notes: Full-length IgG (ExpiCHO)
Regarding B4, the EC50 was 1360 nM in assay [1], 912 nM in [2] and ≥ 5000 nM in [4].

B5: AB3 (antibody, V domains shown)
VH: B4 VH with D31N
VL: B4 VL
notes: Full-length IgG (ExpiCHO)
As to B5, the concentration for a half-maximal effect (EC50) in assay [1] stood at 1650 nM; in assay [2], 1100 nM; in assay [4], 2490 nM.

B6: AB11 (antibody, V domains shown)
VH: DVQLVESGGGLVQPRGSRKLSCAASGFTFSSFGMHWVRQAPEKGLEWVAYISSDSRTIYYADTVKGRFTISRDNPTNTLFLQMTSLRSEDTAMYYCARDYGRTYEAYWGQGTLVTVSA
VL: DIVLTQSPASLAVSLGQRATISCRASKSVSTSGYSYIHWYQQKPGQPPKLLIYLASNLESGVPARFSGSGSGTDFTLNIHPVEEEDAATYYCQHSRELPLTFGAGTKLELK
notes: Full-length IgG (ExpiCHO)
As to B6, the 50% effective concentration (EC50) in assay [1] was found to be 363 nM; in assay [2] it was 835 nM; in assay [4] it was 2380 nM; in assay [5] it was 2240 nM.

B7: AB15 (antibody, V domains shown)
VH: B6 VH
VL: B3 VL
notes: Full-length IgG (ExpiCHO)
For B7, the EC50 in assay [4] and in [5] was ≥ 5000 nM each time.

B8: AB4 (antibody, V domains shown)
VH: QVQLQQSGAELARPGASVKMSCKASGYTFTSYTMHWIKQRPGQGQEWIGYINPSSTYTHYIKKFKDKATLTADKSSSTAYMQLRSLTSEDSAVYYCSRGELGGFAYWGQGTLVTVSA
VL: DVVMTQTPLSLPVSLGDQASISCRSSQSLVHSDGNTYLNWYLQKPGQSPKLLIYKVSNRFSGVPDRFSGSGSGTDFTLKIRRVEAEDLGVYFCSQSTHVPYTFGGGTKLEIK
notes: Full-length IgG (ExpiCHO)
For B8, the concentration for a half-maximal effect (EC50) is 48 nM in [1], 1860 nM in assay [3], 168 nM in assay [2] and ≥ 5000 nM in assay [4].

B9: AB10 (antibody, V domains shown)
VH: QIQLVQSGPALKKPGETVKISCKASGYTFTDYSMHWIKQAPGKGLKWMGWISTETGEPTYADGFKGRFDFSLETSADTAYLSINNLTNEDTATYFCTRGLWSSFAYWGQGTLVTVSA
VL: B8 VL with S25A, D33N, N39H, Y41F, G73R, R81S, S96I
notes: Full-length IgG (ExpiCHO)
Regarding B9, the 50% effective concentration (EC50) in assay [1] is 2140 nM; in assay [3], 246 nM; in [2] it was 2470 nM.

B10: AB9 (antibody, V domains shown)
VH: EVQLQQSGPELVKPGASVKMSCKASGYRFTDYNMHWVKQSHGKSLEWIGYINPNNGGTNYNQNFKGKATLTVNKSSSTAYMELRSLTSEDSAAYYCARDYLYFFDCWGQGTTLTVSS
VL: DIQMTQSPASQSASLGESVTITCLASQTIGTWLAWYQQKPGKSPQLLIYAAASLADGVPSRFSGSGSGTRFSFKISSLQAEDFVSYYCQQLYSIPRTFGGGTKLEIK
notes: Full-length IgG (ExpiCHO)
Take B10: the 50% effective concentration (EC50) in assay [1] is 1140 nM; in assay [2], 1160 nM.

B11: AB14 (antibody, V domains shown)
VH: QVQLQQSGPELVRPGVSVKISCKGSGYTFTDYAMHWVKQSHAKSLEWIGVISTYSGNTNYNQKFQDKATMTVDKSSSTAYMALARLTSDDSAIYYCARRGDYSLYAMDYWGQGTSVTVSS
VL: DIVLTQSPASLAVSLGQRATISCKASQSVDYDGDNYVNWYQQKVGQPPKLLISAASNLESGIPARFSGSGSGTDFTLNIHPVEEEDAATYYCQQSNEDPFTFGSGTKLEIK
notes: Full-length IgG (ExpiCHO)
Turning to B11, the concentration for a half-maximal effect (EC50) in assay [1] worked out at 1300 nM; in [2], 1660 nM.

B12: AB3-7 conjugated to MC-VC-PAB-DXD (antibody, V domains shown)
VH: EVQLLESGGGLVQPGGSMRLSCAASGFTFSNYWMNWVRQAPGKGLEWVAQIRLKSDNYATHYADSVKGRFTISRDDSKNTVYLQMNSLRAEDTGVYYCNDGPPSGSWGQGTLLTVSS
VL: DIQMTQSPSSLSASVGDRVTITCRISENIYSYLAWYQQKPGKAPKLLVYNAKILVEGVPSRFSGSGSGTDFTLTISSLQPEDFGTYYCQHHYTVPWTFGQGTKLEIK
modifications: MC-VC-PAB-DXD conjugated to the antibody; sites not stated
notes: Antibody-drug conjugate of humanized AB3-7; also called CLDN6 ADC
In the case of B12, in [6], the “flow cytometry signal at 0.1µg Ab/Sample” value was determined as 10800 and the “flow cytometry signal at 1µg Ab/Sample” value came to 32600.

B13: AB3-7 (antibody, V domains shown)
VH: B12 VH
VL: B12 VL
notes: Humanized; also called humanized AB3-7; AB23
Regarding B13, the figures for the FACS signal in assay [7], in assay [8] and in assay [9] were 56100, 90400 and 36000, respectively. In addition, the “flow cytometry signal at 0.1µg Ab/Sample” value in assay [6] is 8820. The “flow cytometry signal at 1µg Ab/Sample” value in [6] was 27300.

B14: AB5 (antibody, V domains shown)
VH: EVQLQQSGPELVKPGASVKMSCKASGYIFTHYIMHWVKQKPGQGLEWIGCINPYNDGTKYNEKFKGKATLTSDKSSSTAYMELSSLTSEDSAVYYCARYYGYPYYSMDYWGQGTSVTVSS
VL: DVLMTQTPLSLPVSLGDQPSISCRSSQSIVHSNGNTYLDWYLQKPGQSPKLLIYKVSNRFSGVPDRFSGSGSGTDFTLKISRVEAEDLGVYYCFQGSHVPFTFGSGTRLEIK
notes: Full-length IgG (ExpiCHO)
Turning to B14, the half-maximal effective concentration (EC50) stood at 8 nM in [1], 25 nM in assay [3], 5 nM in assay [2] and 11 nM in [4].
